# Test results reported in US4532212A, “Process for the dissolution of peptides in non-aqueous and mixed non-aqueous/aqueous systems” (Shell Oil Company, priority 1983, dated 1985).
# “Also recorded” adds a separate entry of the source.
# Tests used:
# Format in all cases: physicochemical
# [1] = Protein separation with crown ether/methanol: iso-electric focusing of fractions; conditions: 18-crown-6 in methanol
# Method: Thus mixtures of cytochrome c and α-chymotrypsin (10 mg each, 8.1×10^-4 and 4×10^-4 m.mole, respectively) were treated with 18-crown-6 (28 mg, 0.11 m.mole) in methanol (2 ml). The red solution was filtered from undissolved protein (α-chymotrypsin) and dialysed against water, then buffer (Tris, pH 7.5, 0.10 M). Both filtrate and filtered protein fractions were examined using isoelectric focusing in order to establish the purity of the separations (results shown in Table 2).
# Mixtures of cytochrome c, BSA and α-chymotrypsin (10 mg each, 8,1×10^-4, 1.4×10^-4 and 4×10^-4 m.mole respectively) were treated with 18-crown-6 (50 mg, 0.19 m.mole) in methanol (2 ml) and the resulting red solution was filtered and then dialysed against water then buffer (Tris, pH 7.5, 0.01 M) to remove crown ether and methanol.
# [2] = Dissolution of peptides/proteins in organic solvents using crown ethers and cryptands; conditions: in words
# Method: ^(a) Protein concentration was in the range 0.05-0.8 mM depending on
# protein (i.e. cytochrome c, concentration was 0.8 mM, whereas, myoglobin
# concentrtion was 0.1 mM). In a typical experiment, small portions of CE
# (ca 2.0 mg, 7.6 × 10^-3 mmoles) were added to a suspension of
# protein/peptide (5 mg) in methanol (2 ml) at 4-25° C. with stirrin
# until the suspension dissolved.
# [3] = Protein crystallisation from methanol/18-crown-6/(NH4)2SO4; conditions: crystalline composite from methanol/18-crown-6/(NH4)2SO4
# Method: The solubilised protein solutions were stored at 4° C. within an outer tube containing ethyl acetate as precipitating co-solvent.
# [4] = mixture cytochrome c + BSA + α-chymotrypsin
substance,measurement,setting,value
"Bovine serum albumin (BSA): bovine serum albumin, 513 amino acid residues as printed","Iso-electric focusing results, pHI",[1]; [4],5.5-6.0
"Cytochrome c: Cytochrome c from horse heart (Type III, from Sigma Chemical Co.), 104 residues",Solubility in methanol with crown ether,[2],readily dissolves; also recorded: dissolves in methanol at a lower crown ether concentration than BSA
same,"Iso-electric focusing results, pHI",[1]; [4],9.35
same,"Iso-electric focusing results, pHI",[1]; mixture cytochrome c + α-chymotrypsin,9.35
same,Circular dichroism / UV/visible spectroscopy of crystalline material (protein integrity),[3],intact protein present
